For one data set, the system named is NIH3T3 cells. The experiment in a line: Effect of H2O2 on ARH3-transfected NIH3T3 cells (Cell-Counting Kit-8). As to conditions: stably ARH3 cDNA-transfected NIH3T3 cells vs empty vector; H2O2 for 24 hours. It counts as cell-based. On the procedure:
FIG. 16 is a line graph showing the effect of H2O2 on ARH3-transfected NIH3T3 cells. NIH3T3 cells were transfected with ARH3 cDNA using Lipofectamin transfection reagent (INVITROGEN™). After transfection, the cells were cultured and exposed to 200 μg/ml of Hygromycin G (INVITROGEN™) for 3-4 weeks to select stably transfected clones. Positive clones derived from single Hygromycin G-resistant cells were then isolated by cloning rings and further grown under the same conditions. As controls, NIH3T3 cells were transfected with an empty pcDNA3.1 vector (INVITROGEN™) and subjected to the same selection and cloning procedures as described above. The cells were plated in 96-well plates at 1×10^4 cells/well, and incubated for 24 h at 37° C. in a humidified incubator. The cells were then challenged at the indicated concentrations of H2O2 for 24 hours. Cell survival was determined by using Cell-Counting Kit-8 (Dojindo). The experiments were repeated twice with similar results.
To test the role of ARH3 in the cellular response to oxidative stress, NIH3T3 cells were transfected with ARH3 cDNA using Lipofectamin transfection reagent (Invitrogen). […]
The cells were plated in 96-well plates at 1×10^4 cells/well, and incubated for 24 hours at 37° C. in a humidified incubator. […] Cell viability was determined by using Cell-Counting Kit-8 (Dojindo). […]

Data set [1] in a line: Hydrolysis of O-acetyl-[14C]ADP-ribose by ARH proteins / PARG (RP-HPLC). It counts as biochemical. On the procedure: FIG. 13A is a graph illustrating the results from incubation of 1.5 pmol of mouse ARH3 with or without 5 mM DTT and/or 10 mM MgCl2 as described in FIG. 11B with incubation for 1 h at 30° C. FIG. 13B is a graph illustrating the results from incubation of 1.5 pmol of wild type or mutant human (D77-78) ARH3 or 20 mU of PARG for 2 h at 30° C. *D77,78, assays incubated with 15 pmol of mutant human ARH3 (D77, D78).
FIG. 14A is a graph of the results from incubation with the indicated amount of mouse ARH1, 2, or 3 for 2 h at 30° C. FIG. 14B is a graph of the results from incubation with 230 pmol of mouse ARH1 at 30° C. for the indicated time.
Mouse ARH3 (2 pmol) and 2.5 μM O-acetyl-[^14C]ADP-ribose (5,000 cpm) in 200 μl of buffer containing 50 mM potassium phosphate (pH 7.0), 10 mM MgCl2 and 5 mM DTT were incubated for 2 h at 30° C., before separation of substrate and products using RP-HPLC as described below.
Hydrolysis of O-acetyl-[^14C]ADP-ribose catalyzed by ARH3. Assays containing the indicated concentration of O-acetyl-[^14C]-ADP-ribose (0.1 to 2 nmol, 1,000 to 20,000 cpm) and 1.5 pmol of ARH3 in 200 μl of buffer (50 mM KPO4 (pH 7.0), 10 mM MgCl2, 5 mM DTT) were incubated at 30° C. for 20 min. Substrate and products were separated using RP-HPLC. Amounts of product were corrected for ADP-ribose produced in the absence of ARH3 before calculation of hydrolysis rates.
Because O-acetyl-ADP-ribose was known to be hydrolyzed at alkaline pH Tanny and Moazed (2001), Proc Natl Acad Sci USA. 98(2):415-20, Epub Dec. 26, 2000), it was generated at pH 7.0 in the presence of [^14C-adenine] β-NAD, Sir2, and acetylated histone H3 peptide (FIG. 11A), and the products of Sir2 and ARH3 were analyzed using reverse-phase HPLC at the same pH (FIGS. 11A,B). The products of the ARH3-catalyzed reaction were also analyzed by high resolution-polyacrylamide gel electrophoresis (FIG. 11C). O-acetyl-[^14C]ADP-ribose hydrolase activity was time and ARH3 dependent (FIG. 12) and essentially completely dependent on Mg^2+ (FIG. 13A).
O-acetyl-ADP-ribose hydrolysis by ARH1 was time and ARH1 dependent (FIG. 14b).

Where “and” joins values, the source holds several entries; their conditions need not be identical. Identical values can stand only once.

B1: ARH3: 39-kDa recombinant protein having both poly(ADP-ribose) glycohydrolase activity and O-acetyl-ADP-ribose hydrolase activity (protein, listed as Homo sapiens)
chain: MAAAAMAAAAGGGAGAARSLSRFRGCLAGALLGDCVGSFYEAHDTVDLTSVLRHVQSLEPDPGTPGSERTEALYYTDDTAMARALVQSLLAKEAFDEVDMAHRFAQEYKKDPDRGYGAGVVTVFKKLLNPKCRDVFEPARAQFNGKGSYGNGGAMRVAGISLAYSSVQDVQKFARLSAQLTHASSLGYNGAILQALAVHLALQGESSSEHFLKQLLGHMEDLEGDAQSVLDARELGMEERPYSSRLKKIGELLDQASVTREEVVSELGNGIAAFESVPTAIYCFLRCMEPDPEIPSAFNSLQRTLIYSISLGGDTDTIATMAGAIAGAYYGMDQVPESWQQSCEGYEETDILAQSLHRVFQKS
Turning to B1, in the data set with NIH3T3 cells, the “Cell viability after H2O2 challenge” value was “significantly reduced the toxic effect of H2O2”. Moreover, the Km (in general, the concentration of substrate that gives half-maximal velocity) in data set [1] (1.5 pmol ARH3, 30° C., 20 min, pH 7.0, 10 mM MgCl2, 5 mM DTT) was 7.4 ± 0.7 µM. Besides, the “Vmax, O-acetyl-ADP-ribose hydrolysis” value in data set [1] (1.5 pmol ARH3, 30° C., 20 min, pH 7.0, 10 mM MgCl2, 5 mM DTT, means ±½ range of duplicates) was found to be 173 ± 8.4 nmol/min/mg. For the same molecule, the “kcat, O-acetyl-ADP-ribose hydrolysis” value in data set [1] (comparison with mNudT5) came to 0.0052 ± 0.0033 s⁻¹. Also, the “Rate of O-acetyl-ADP-ribose hydrolysis relative to that of ARH1” value in data set [1] (times / -fold the rate with ARH1, recombinant mouse proteins, 2 h at 30° C.) was 250 and > 250.

Values taken from patent publication US7670806B2, “ADP-ribosyl acceptor hydrolase 3 (ARH3) polypeptides and methods of use” (The United States of America as represented by the …, priority 2005, dated 2010).
